Consider two proteins from article PMC4441150, “Synergistic function of four novel thermostable glycoside hydrolases from a long-term enriched thermophilic methanogenic digester” (Frontiers in Microbiology, 2015).

Holding throughout (test): purified protein
Substrate in data set [1]: O=[N+]([O-])c1ccc(O[C@@H]2O[C@H](CO)[C@@H](O)[C@H](O)[C@H]2O)cc1
To be noted: 1-50 mM substrate.

Substrate in data set [2]: O=[N+]([O-])c1ccc(O[C@@H]2OC[C@@H](O)[C@H](O)[C@H]2O)cc1
The data set is classed as biochemical, bacterium enrichment culture. To be noted: 1-50 mM substrate.

Substrate in data set [3]: O=[N+]([O-])c1ccc(O[C@@H]2O[C@H](CO)[C@@H](O[C@@H]3O[C@H](CO)[C@@H](O)[C@H](O)[C@H]3O)[C@H](O)[C@H]2O)cc1
The data set is classed as biochemical, bacterium enrichment culture. To be noted: optimal conditions of the enzyme (optimum pH 6.0, 65°C), 1-50 mM substrate.

Substrate in data set [4]: O=[N+]([O-])c1ccc(O[C@@H]2O[C@@H](CO)[C@H](O)[C@H]2O)cc1
Type of data set: biochemical, bacterium enrichment culture. To be noted: optimal conditions of the enzyme (optimum pH 4.5, 60°C), 1-50 mM substrate.

The mark [5] stands for this setting: optimal conditions of the enzyme (optimum pH 6.0, 65°C), pH 6.0, 65.0 °C.
The mark [6] stands for this setting: optimal conditions of the enzyme (optimum pH 6.0, 65°C).
The mark [7] stands for this setting: optimal conditions of the enzyme (optimum pH 4.5, 60°C), pH 4.5, 60.0 °C.
Setting [8] is: optimal conditions of the enzyme (optimum pH 4.5, 60°C).

B1: Bgl8520 (bacterium enrichment culture) (protein)
chain: MNKHNKGGLLMKFPENFVWGAAAASYQIEGAAYEDGKGLSVWDIFTRQKGAIENGDNGDIACNHYHRYKEDVQLMKELGLQAYRLSLSWPRILANGTGKVNQKGLDFYDKLIDELLENGIEPYITLFHWDYPYELYKKGGWLNPDSPDWFAEYTEVVVQKLSDRVKNWITINEPQVFVNLGHKDGVHAPGLKLGMEDLLQISHNVLLAHGKGARVIRETSVQDCRIGLAPSDSPVFPATKSEENIQAARRASFSVEDKGLWAINWWMDPVILGRYPEEGLKIFEEYLPEIKTDDFKIISEPIDFFGVNIYQGVCVKLDDKGQAVPAERKVGYARNAYYWPITPEALYWGPRFYYERYKKPVIITENGMSNVDWVAVDGKVHDPQRIDFTNRYLRELQKAGEDGVDIQGYFHWSLMDNFEWAQGYLERFGLIYVDFETGERIIKDSAYWYKKVIETKGEALYA
notes: no signal peptide; pET-28a(+) in E. coli BL21 (DE3), Ni-NTA purified
As to B1, the Km in data set [1] (setting [5]) is given as 0.9 mM; in data set [2] (setting [6]) it was 0.7 mM; in data set [3] it was 2.7 mM. For the same protein, the kcat in data set [1] (setting [5]) was 124 s⁻¹; in data set [2] (setting [6]), 0.3 s⁻¹; in data set [3], 8.2 s⁻¹. Further, the catalytic efficiency (kcat/Km) in data set [1] (setting [5]) was determined as 140000 M⁻¹ s⁻¹; in data set [2] (setting [6]), 430 M⁻¹ s⁻¹; in data set [3] it was 3000 M⁻¹ s⁻¹.

B2: Xyl522 (bacterium enrichment culture) (protein)
chain: MVYKMLFQRSDLPMEERIKDLISRLTLEEKVSQLLYDSAAIPHLGIPEYNWWNECLHGVARAGTATVFPQAIGMAASFNAPLLQQVAEVIATEARAKHHEAARHGDRGIYKGLTFWTPNINIFRDPRWGRGQETYGEDPYLTAQLGIAFVKGLQGDHPKYLKAAACAKHFAVHSGPESLRHSFDARCSQKDLYETYLPAFRALVTEAKVESVMGAYNRTNGEPCCASPTLLQKILREDWGFEGHVVSDCGAIHDIHAHHKVTGSPEESAALAVKNGCDLNCGRVYPALVEAVAQGLISEEEIDRALARLLRTKFKLGLFDPEEEVPYAQIPYEVVACDEHRSLAREMARQSMVLLKNENNLLPLSKELKTVAVIGPNADSRKVLLGNYFGTSSQLVTALEGIRRKLEPNCRVLYAEGCDLTTTRPGYWGNSPREGFAEALAVAERADAVIMCMGVSPDLEGEEGAAANSDGGGDRLTLELPGMQNELIKEVAALGKPLVLVLFSGSPLAVTWAQENVPAIIQAWYPGEEGGNALADIIFGDYNPAGRLPITFVKSLDQLPPFTDYSMEGRTYRYLKEEPLYPFGYGLSYTSFTYSNLQAPAELNIGEELVVQVDVENTGARAGDEVVQLYIRHRDASAAVPHHSLQGFARIRLEPGEKRTVTFRLAPRQLAVFDEEGRCLVEPGAVELLAGGSQPDARSEELTGQKPLLGQVLLVGETLELPR
notes: as for B1
In the case of B2, in data set [1] (setting [7]), the Michaelis-Menten constant (Km) stood at 15.7 mM, the kcat is 1.4 s⁻¹ and the catalytic efficiency (kcat/Km) worked out at 89.2 M⁻¹ s⁻¹. Also, in data set [2] (setting [8]), the Km is recorded as 8.8 mM, the turnover number (kcat) was 14.3 s⁻¹ and the kcat/Km stood at 1600 M⁻¹ s⁻¹. Moreover, in data set [4], the Michaelis-Menten constant (Km) was determined as 10.0 mM, the catalytic constant (kcat) was found to be 3.2 s⁻¹ and the catalytic efficiency (kcat/Km) came out at 320 M⁻¹ s⁻¹.

One may read the Km as the concentration of substrate that gives half-maximal velocity. A word on the kcat: it is the maximal rate divided by the concentration of active sites. As usually defined, the kcat/Km is the turnover number divided by the Michaelis constant.
